Results from PMC10157535, “Structural basis of phosphorylation-induced activation of the response regulator VbrR”.

How the values were obtained:
[1] = target: full-length VbrR (response regulator VbrR from Vibrio parahaemolyticus) (Vibrio parahaemolyticus); test: SEC-MALS; SEC-MALLS, Superdex-200 10/30, buffer A (20 mM Tris-HCl pH 8.0, 100 mM NaCl), 100 uL of ~10 mg/mL protein injected, 0.5 mL/min; no BeF3-
[2] = target: VbrR DNA-binding domain (DBD, 125-220) (Vibrio parahaemolyticus); test: as above
[3] = target: VbrR receiver domain (RD, 1-117) (Vibrio parahaemolyticus); test: SEC-MALS; SEC-MALLS, Superdex-200 10/30, buffer A supplemented with 5.3 mM BeSO4, 35 mM NaF and 7 mM MgCl2 (BeF3-), 100 uL of ~10 mg/mL protein injected
[4] = target: T1, VbrR (monomer fraction) (Vibrio parahaemolyticus, UniProt A0A0L8SKF9 1-220); test: crystal structure; 4.6 A; VbrR dimer on DNA; BLI (Octet RED, biotinylated protein on streptavidin sensors), PBS: 10 mM phosphate pH 7.4, 2.7 mM KCl, 137 mM NaCl, 25 C; 1:1 fit; conditions: protein: recombinant; tags: N-terminal 6xHis; biotinylated for BLI; chain copies: 2; blunt
T1 sequence: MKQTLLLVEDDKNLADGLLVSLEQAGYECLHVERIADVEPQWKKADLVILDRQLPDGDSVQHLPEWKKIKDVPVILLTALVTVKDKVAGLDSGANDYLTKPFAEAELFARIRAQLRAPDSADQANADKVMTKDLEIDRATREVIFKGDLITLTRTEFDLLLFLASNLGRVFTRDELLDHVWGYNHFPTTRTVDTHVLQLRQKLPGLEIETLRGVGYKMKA

[5] = target: T2, VbrR (state not stated) (Vibrio parahaemolyticus, UniProt A0A0L8SKF9 1-220); test: BLI; 2.5-80 uM DNA; oligomeric state not stated; BLI (Octet RED, biotinylated protein on streptavidin sensors), PBS: 10 mM phosphate pH 7.4, 2.7 mM KCl, 137 mM NaCl, 25 C; 1:1 fit; conditions: protein: recombinant, tags: N-terminal 6xHis, chain copies: 2
T2 sequence: T1 sequence

[6] = target: T1, VbrR (monomer fraction); test: BLI; VbrR monomer; BLI (Octet RED, biotinylated protein on streptavidin sensors), PBS: 10 mM phosphate pH 7.4, 2.7 mM KCl, 137 mM NaCl, 25 C; 1:1 fit; conditions: protein: recombinant; tags: N-terminal 6xHis; biotinylated for BLI
[7] = target: T3, VbrR DBD (monomer fraction) (Vibrio parahaemolyticus, UniProt A0A0L8SKF9 125-220); test: BLI; DBD monomer; BLI (Octet RED, biotinylated protein on streptavidin sensors), PBS: 10 mM phosphate pH 7.4, 2.7 mM KCl, 137 mM NaCl, 25 C; 1:1 fit; conditions: protein: recombinant, tags: N-terminal 6xHis
T3 sequence: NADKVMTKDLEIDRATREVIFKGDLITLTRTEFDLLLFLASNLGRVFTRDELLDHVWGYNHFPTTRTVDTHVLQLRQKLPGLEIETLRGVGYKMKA

[8] = target: T2, VbrR (state not stated); test: BLI; 10-160 uM DNA; text order of the two values (0.69, 0.77) matches 30 bp then 49 bp; BLI (Octet RED, biotinylated protein on streptavidin sensors), PBS: 10 mM phosphate pH 7.4, 2.7 mM KCl, 137 mM NaCl, 25 C; 1:1 fit; conditions: protein: recombinant, tags: N-terminal 6xHis, chain copies: 2

full-length VbrR (response regulator VbrR from Vibrio parahaemolyticus) (natural protein)
stoichiometry N [1]: 2

VbrR DNA-binding domain (DBD, 125-220) (domain or fragment)
stoichiometry N [2]: 2

VbrR receiver domain (RD, 1-117) (domain or fragment)
stoichiometry N [3]: 2

B1: exsC promoter 26 bp (dsDNA)
DNA 1: CACAATTCTAATTCTTCATCGCTTGT
DNA 2: ACAAGCGATGAAGAATTAGAATTGTG
binding result [4]: binds

B2: exsC promoter 49 bp (dsDNA)
DNA 1: AACACAATTCTAATTCTTCATCGCTTGTCGATATAAACCAAAATCCCAC
DNA 2: GTGGGATTTTGGTTTATATCGACAAGCGATGAAGAATTAGAATTGTGTT
Kd [5]: 770 nM
Kd [6]: 270 nM
Kd [7]: 140 nM

B3: exsC promoter 30 bp (dsDNA)
DNA 1: AACACAATTCTAATTCTTCATCGCTTGTCG
DNA 2: CGACAAGCGATGAAGAATTAGAATTGTGTT
Kd [8]: 690 nM
